Patent US8445275B2, “Induction of dendritic cell development with macrophage-colony stimulating factor (M-CSF)” (Bavarian Nordic A/S, priority 2007, dated 2013)

Columns and labels:
[1] = test system: FL cultures (FL-DC generation, Flt3); experiment: Inhibitor effect on cell numbers in FL BM cultures (FL-DC generation); type: cell-based, mouse; details: range of concentrations
Procedure: FIG. 4 and FIG. 8. The generation of M-DC is inhibited by a c-FMS inhibitor. Replicate M-CSF and FL cultures were conducted in parallel in the presence or absence of a range of A: cFMS Receptor Tyrosine Kinase Inhibitor or B: Flt3 Inhibitor concentrations. At the end of the culture period all cells were counted. The number of cells harvested from cultures without inhibitor was set at 100%. Cells from cultures containing inhibitor were expressed as a percentage of cells obtained in the absence of inhibitor. The data shown in each panel are from one experiment each, representative of 2 experiments carried out for each of the inhibitors.
(§1) M-CSF and FL BM cultures—BM cells were flushed from femurs and tibiae of mice. Red cell lysis buffer (Sigma-Aldrich) was used to deplete red blood cells from the BM cell suspensions. BM cells were then either cultured directly or after depletion. To deplete, BM cells were incubated for 30 min with rat antibodies to CD11c and CD45R (B220) followed by 30 min incubation with goat anti-rat magnetic beads (Qiagen, Hilden, Germany). The depletion procedure routinely removed 65-80% of total BM cells. It should be noted that depletion with the beads only, in the absence of the rat antibodies, also depleted about 50% of the BM cells, presumably via FcR/Ig interactions. […]

[2] = test system: M-pDC; experiment: Activation and cytokine production of sorted M-pDC by TLR ligands; type: cell-based, mouse; details: TLR2 ligand 1 μg/ml, 18 hrs
Procedure: Activation of DC subsets and analysis of cytokine production by ELISA—Unsorted M-CSF or FL BM cultures or sorted DCs (0.25−0.5×10^6 cells/ml) were stimulated for 18-24 hrs in complete media with or without an added stimulus. The stimuli used were as follows: 1 μg/ml Pam-3-Cys, 100 μg/ml poly(I:C), 1 μg/ml LPS, 1 μg/ml R837, 1 mM Loxoribine, 0.5 μM CpG2216, 0.5 μM CpG1668. Culture supernatants were assayed for the presence of IFN-α by two-site ELISA as previously described (21). Other cytokines (IL-12 p70, IL-6, TNF-α, MCP-1 and IFN-γ) were measured using the Cytometric Bead Array, Mouse Inflammation Kit (Becton Dickinson). Stimulated DCs were blocked as stated above and stained with antibodies directed to CD8a, CD40, CD69, CD80 and CD86.
The survival of the M-pDC to these stimuli was extremely poor (<5%), data not shown.
Similar to FL-pDCs and ex-vivo pDCs, sorted M-pDC were activated with ligands for TLR7 and 9, as indicated by elevated expression of CD8a, CD69, CD86 and CD40 (FIG. 3B and data not shown). M-pDC only produced detectable cytokines to TLR7 and 9 ligands (FIG. 3C and data not shown). In response to a type A CpG-ODN (CpG2216) M-pDCs produced high levels of IFN-α (FIG. 3C). […] The production of IL-10, IL-12p70, MCP-1 and IFN-γ by the M-pDC was also tested but none of these cytokines were detected.

[3] = test system: mouse bone marrow (BM) cells; experiment: IFN-α production of M-CSF BM cultures in response to CpG-2216 (ELISA); type: cell-based
Procedure: as §1, with “interactions. Total BM cells or depleted BM cells were cultured at 1.5×10^6 cells/ml in RPMI-1640 media (Gibco) supplemented with 10% FCS, 50 μM beta-mercaptoethanol, 100 IU/ml penicillin/streptomycin (complete media) and either 20 ng/ml recmuM-CSF or rechu-MCSF or 35 ng/ml recmuFL for 6-8 days at 37° C. in a humidified atmosphere containing 5% CO2.” for “interactions.”
Activation of DC subsets and analysis of cytokine production by ELISA—Unsorted M-CSF or FL BM cultures or sorted DCs (0.25−0.5×10^6 cells/ml) were stimulated for 18-24 hrs in complete media with or without an added stimulus. […] Other cytokines (IL-12 p70, IL-6, TNF-α, MCP-1 and IFN-γ) were measured using the Cytometric Bead Array, Mouse Inflammation Kit (Becton Dickinson). […]

[4] = test system: BM cells depleted of B220+ and CD11c+ cells; experiment: pDC/cDC development in M-CSF BM cultures (CD11c/CD45RA staining); type: cell-based, mouse
Procedure: M-CSF and FL BM cultures—BM cells were flushed from femurs and tibiae of mice. Red cell lysis buffer (Sigma-Aldrich) was used to deplete red blood cells from the BM cell suspensions. BM cells were then either cultured directly or after depletion. To deplete, BM cells were incubated for 30 min with rat antibodies to CD11c and CD45R (B220) followed by 30 min incubation with goat anti-rat magnetic beads (Qiagen, Hilden, Germany). The depletion procedure routinely removed 65-80% of total BM cells. It should be noted that depletion with the beads only, in the absence of the rat antibodies, also depleted about 50% of the BM cells, presumably via FcR/Ig interactions. Total BM cells or depleted BM cells were cultured at 1.5×10^6 cells/ml in RPMI-1640 media (Gibco) supplemented with 10% FCS, 50 μM beta-mercaptoethanol, 100 IU/ml penicillin/streptomycin (complete media) and either 20 ng/ml recmuM-CSF or rechu-MCSF or 35 ng/ml recmuFL for 6-8 days at 37° C. in a humidified atmosphere containing 5% CO2. The M-CSF cultures were fed with fresh M-CSF every 3 days, without media change.
Surface staining of M-CSF or FL BM cultures—Harvested cells were washed in PBS containing 2% FCS and 2 mM EDTA (FACS buffer). FcR binding was then blocked by incubation with 1 mg/ml purified anti CD16/32 monoclonal antibody (clone 2.4G2) for 20 mins on ice. An equal volume of 2× concentrated specific antibody stain was then added to the cell suspension and incubated for a further 20 mins. Cells were washed in FACS buffer and resuspended in FACS buffer containing 1 μg/ml propidium iodide.
Indeed, a population of 10-20% of cells within the cultures expressed high levels of CD45RA and medium levels of CD11c, together with the lack of CD3, CD19 or CD49b or NK1.1 expression, low side scatter and forward scatter this was commensurate with the phenotype of pDCs (FIG. 1B and data not shown).
It was clear that M-CSF could drive pDC development yet the yield of pDCs was substantially less then that obtained with FL. […]

[5] = test system: C57BL/6 or FLKO mice; experiment: In vivo M-CSF treatment, DC numbers in spleen and peritoneal lavage; parameters: species or system mouse
Procedure: In vivo M-CSF treatment—Wild type and FLKO mice were treated ip with 10 μg of M-CSF in 0.01% BSA (100 μl volume), or with vehicle alone, for five consecutive days. At the end of five days mice were sacrificed. The peritoneum was flushed 3 times with Complete media and then organs were collected for DC purification.
Ex vivo DC purification—DCs were purified from spleens of M-CSF or vehicle treated mice essentially as previously described (21), using FACS buffer, RPMI and 1.077A Nycodenz (Progen Biotechnik GmbH, Heidelberg, Germany) that was adjusted to mouse osmolarity (308 mOsm).
Specifically cDC were reduced about 2-fold and pDC about 3-fold. This was substantially less of an effect than that seen in mice lacking FL but nevertheless, lack of M-CSF did result in reduced DC numbers, further substantiating the assumption that M-CSF is a DC poietin. To further validate the studies initiated by MacDonald et al (2005), M-CSF was administered to mice in order to analyze whether M-CSF could actually increase DC numbers in vivo. According to other references in the prior art, a range of exogenous M-CSF concentrations in the range of 10 to 200 μg/day has been administered. The source of M-CSF used has varied widely and consequently, as well as the specific activity. It is thus impossible to gauge an optimal or saturating level of M-CSF to administer. Moreover, it has been reported that M-CSF has an extremely short half-life of only 10 mins in the circulation^28. Due to the prohibitive cost of commercial M-CSF with a determined specific activity a ‘proof of principal’ trial experiment was conducted and 10 μg/day of M-CSF to C57BL/6 or FLKO mice for 5 days were administered. This amount was neither titrated nor was it attempted to extend the application period. […] Said observations indicate that M-CSF indeed was inducing an effect in vivo.

[6] = test system: CMP, CLP, GMP from C57BL/6 BM; experiment: M-CSF cultures of purified progenitors (CMP, CLP, GMP) spiked into UBC-GFP BM cells; type: cell-based, mouse; details: M-CSF culture 6 days
Procedure: CMP (Lin^−Sca-1^−ckit^+CD34^+FcR^int), CLP (Lin^−Sca-1^+c-kit^intIL-7R^+Thy-1^−) or granulocyte/macrophage progenitors (GMP, Lin^−Sca-1^−c-kit^+CD34^+FcR^hi) were isolated from C57BL/6 BM as previously described^21 and sorted to greater than 95% purity on a FACS-ARIA instrument. 2500 cells and serial 2-fold dilutions thereof were added to a 1 ml suspension of UBC-GFP BM cells in a 24-well plate. Final UBC-GFP BM cell concentration was 1.0×10^6 cells/ml. M-CSF or FL cultures were carried out in these wells as described above. After 6 days, samples were enumerated, analysed by FACS, and progeny arising from the C57BL/6 progenitors were gated as GFP^neg cells. To analyse M-CSFR (CD115) and Flt3 (CD135) expression on CLP (Lin^−Sca-1^+c-kit^intIL-7R^+Thy-1^−), lineage depleted cells were first stained with Sca-1-FITC and Thy-1-PE antibodies and the Sca-1^+Thy-1^− cells were sorted. These pre-enriched cells (>95% purity when reanalysed) were then stained with CD117-PE-CY7, IL-7R-APC and either CD115-PE or CD135-PE.
The identification of DC subtypes that could be generated in the absence of FL both in vivo and in vitro immediately raises the question of the nature of their precursor cells. It has been considered whether this factor acts on an early lineage progenitor or, since M-CSF is traditionally considered a ‘myeloid’ growth factor, on a later precursor within the myeloid lineage to generate M-DC. CMP, GMP and CLP were purified from mouse BM. Serial dilutions of the purified cell populations were admixed with ‘feeder’ UBC-GFP BM cells and M-CSF cultures were carried out for 6 days.

[7] = reported in the literature; cited from earlier work
[8] = 10 μg/day ip for 5 days, C57BL/6 and FLKO mice, vs vehicle

Which “effect on generation of FL-DC” value [1] does the source give for Flt3 Inhibitor II here?
Its value is “highly inhibitory”.

With “palmitoyl-3-cysteine-serine-lysine-4 [Pam-3-Cys]” as the molecule, how does the “surface activation of M-pDC” value [2] read?
The value was “very minor surface activation”.

B1: M-CSF: Recombinant murine or human Macrophage-Colony Stimulating Factor obtained from Tebu-Bio / R&D Systems (protein, UniProt P09603 33-554, looked up)
Macrophage colony-stimulating …: EEVSEYCSHMIGSGHLQSLQRLIDSQMETSCQITFEFVDQEQLKDPVCYLKKAFLLVQDIMEDTMRFRDNTPNAIAIVQLQELSLRLKSCFTKDYEEHDKACVRTFYETPLQLLEKVKNVFNETKNLLDKDWNIFSKNCNNSFAECSSQDVVTKPDCNCLYPKAIPSSDPASVSPHQPLAPSMAPVAGLTWEDSEGTEGSSLLPGEQPLHTVDPGSAKQRPPRSTCQSFEPPETPVVKDSTIGGSPQPRPSVGAFNPGMEDILDSAMGTNWVPEEASGEASEIPVPQGTELSPSRPGGGSMQTEPARPSNFLSASSPLPASAKGQQPADVTGTALPRVGPVRPTGQDWNHTPQKTDHPSALLRDPPEPGSPRISSLRPQGLSNPSTLSAQPQLSRSHSSGSVLPLGELEGRRSTRDRRSPAEPEGGPASEGAARPLPRFNSVPLTDTGHERQSEGSFSPQLQESVFHLLVPSVILVLLAVGGLLFYRWRRRSHQEPQRADSPLEQPEGSPLTQDDRQVELPV
With B1 as the molecule, how does the “CpG-induced IFN-α producing capacity” value ([3]; DC-depleted BM cells cultured with M-CSF for 6 days, non-adherent cells) read?
Its value is “potent IFN-α producing capacity was detected again”.

And the “IFN-α production in response to CpG-2216” value ([3]; total BM cells cultured with M-CSF, 0-7 days, adherent and non-adherent cells)?
Its value is “high levels”.

And the “pDC development in BM cultures from FLKO mice” value ([4]; FLKO BM depleted of DC, exogenous M-CSF only)?
Its value is “pDCs developed even in the absence of FL”.

And the “population of cells with pDC phenotype (CD45RA high, CD11c medium) within the cultures” value ([4]; non-adherent M-CSF-generated cells, day 6)?
The value was 10-20%.

And the “efficiency of pDC yield compared with FL” value ([4]; side by side after six days of culture, less efficient than FL)?
The value was “approximately 10 fold”.

What about the “increase of cells that resembled DC in the peritoneal lavage” value ([5]; 10 μg/day for 5 days, a C57BL/6 mouse, data not shown) of the same molecule?
The value was “greater than 6 fold”.

And the “F4/80hi cells in peritoneal lavages” value ([5]; 10 μg/day for 5 days, data not shown)?
Its value is “huge increase”.

And the total splenocytes ([5]; 10 μg/day ip for 5 days)?
The total splenocytes was “did not induce an increase”.

What about the “increase in cDC numbers in the spleen” value [5, 8] of the same molecule?
Its value is “about 2 fold”.

And the “increase in pDC numbers in the spleen” value [5, 8]?
Its value is “about 2 fold”.

What about the “output of M-cDC per input progenitor cell” value ([6]; CLP) of the same molecule?
The value was “about 5”.

What about the “output of M-pDC per input progenitor cell” value ([6]; CLP) of the same molecule?
The value was “at least 10”.

And the “output of M-cDC per input progenitor cell” value ([6]; CMP)?
Its value is 8-10.

What about the “M-DC production from progenitors” value ([6]; GMP) of the same molecule?
The value was “not capable of M-DC production”.

And the “half-life in the circulation” value [7]?
The value was 10 min.
